Assay results: patent US20170101470A1 (PROTHENA BIOSCIENCES, published 2017)
Numbering of substitutions follows the chain as printed. One block for each binder: values may come before it.

Experiments:
[1] = target: T1, human MCAM expressed on CHO cells (full length human MCAM gene) (human, UniProt P43121 24-646); assay: flow cytometry: blocking of recombinant human laminin 411 (20 ug/ml) binding to CHO cells expressing human MCAM
T1 construct: also called hMCAM expressing CHO cells; CD146
T1 chain: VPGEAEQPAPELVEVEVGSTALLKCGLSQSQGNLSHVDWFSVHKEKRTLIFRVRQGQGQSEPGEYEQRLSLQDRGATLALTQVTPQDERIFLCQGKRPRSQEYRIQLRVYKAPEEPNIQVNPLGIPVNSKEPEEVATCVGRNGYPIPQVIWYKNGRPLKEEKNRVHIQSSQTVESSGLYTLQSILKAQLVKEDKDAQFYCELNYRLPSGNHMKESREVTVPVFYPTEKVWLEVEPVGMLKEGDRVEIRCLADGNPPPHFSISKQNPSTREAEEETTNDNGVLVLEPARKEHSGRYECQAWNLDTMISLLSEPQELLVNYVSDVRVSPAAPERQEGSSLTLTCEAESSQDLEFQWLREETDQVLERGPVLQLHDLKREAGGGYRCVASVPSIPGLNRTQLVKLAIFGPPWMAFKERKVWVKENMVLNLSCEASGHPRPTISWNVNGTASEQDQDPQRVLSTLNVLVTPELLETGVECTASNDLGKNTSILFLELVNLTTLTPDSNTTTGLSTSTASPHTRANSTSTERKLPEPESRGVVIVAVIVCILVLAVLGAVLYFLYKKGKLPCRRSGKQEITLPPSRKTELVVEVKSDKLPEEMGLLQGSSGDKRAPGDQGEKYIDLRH
Protocol: The 87 independent mouse fusion clones and 26 independent rat fusion clones described in Example 1 above as being capable of (i) binding to human MCAM, and (ii) blocking the interaction between human MCAM and the α-4 chain of laminin were further characterized as follows. First, IC50 quantitation for the ability of the monoclonal antibody to block the binding of human MCAM to the α-4 chain of laminin was determined as follows. CHO cells expressing human MCAM were incubated with an anti-human MCAM antibody (at various concentrations) for 30 minutes at 4 degrees Celsius. […] Unbound laminin was then washed away, and the laminin bound to the surface of the cells was detected with fluorescently labeled anti-laminin antibodies. After washing, the amount of laminin bound to the surface was detected by flow cytometry, and IC50s were calculated based on the mean fluorescent intensity.
Amino acid and nucleic acid sequences of the heavy and light chains of these antibodies, and their hypervariable regions, are provided in SEQ ID NOs:29-92. […] As such, each of these specific monoclonal antibodies was very capable of binding to human MCAM and inhibiting the interaction of cell-expressed human MCAM with its α-4 laminin binding ligand.

[2] = target: T2, human MCAM domain 3 hFc construct (human, UniProt P43121 244-321); assay: ForteBio Octet Red, MCAMhFc domains on anti-human IgG Fc sensors, antibody at 5 ug/ml
T2 construct: One of the 'various MCAMhFc domains' loaded on the ForteBio sensors; also called MCAMhFc domain 3
T2 sequence: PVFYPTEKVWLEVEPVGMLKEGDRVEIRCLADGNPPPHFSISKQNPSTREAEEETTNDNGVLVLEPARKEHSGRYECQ
From the text: (§1) The following protocol was used: ForteBio anti-human IgG Fc biosensors were used to immobilize various MCAMhFc domains including full length MCAMhFc protein on to biosensor surface. […] After loading these samples into a black 96 well plate, the Octet Red was programmed as follows: 60 seconds for baseline #1; 180 seconds for loading various domains; 60 seconds for baseline #2; 180 seconds for association of antibody to domain; and 240 seconds for dissociation of antibody from domain.
(§2) Reagents and Supplies Used: [0358] 1. MCAMhFc final concentration @ 5 ug/ml [0359] […] 3. ForteBio anti-human IgG Fc Capture (AHC) biosensors for kinetics experiments, cat#18-5060 [0361] 4. Block 96 well plate from Greiner Bio-one, cat#655209 [0362] 5. ForteBio Octet Red machine [0363] 6. Fresh tissue culture medium, DMEM with 20% FCS, was used as buffer for dilution

[3] = target: T3, human MCAM-Fc protein (extracellular domain of human MCAM fused to human IgG) (human, UniProt P43121 24-559); assay: summary sentence of Example 3 (ForteBio, MCAMhFc)
T3 construct: also called hMCAM-Fc; MCAMhFc
T3 chain: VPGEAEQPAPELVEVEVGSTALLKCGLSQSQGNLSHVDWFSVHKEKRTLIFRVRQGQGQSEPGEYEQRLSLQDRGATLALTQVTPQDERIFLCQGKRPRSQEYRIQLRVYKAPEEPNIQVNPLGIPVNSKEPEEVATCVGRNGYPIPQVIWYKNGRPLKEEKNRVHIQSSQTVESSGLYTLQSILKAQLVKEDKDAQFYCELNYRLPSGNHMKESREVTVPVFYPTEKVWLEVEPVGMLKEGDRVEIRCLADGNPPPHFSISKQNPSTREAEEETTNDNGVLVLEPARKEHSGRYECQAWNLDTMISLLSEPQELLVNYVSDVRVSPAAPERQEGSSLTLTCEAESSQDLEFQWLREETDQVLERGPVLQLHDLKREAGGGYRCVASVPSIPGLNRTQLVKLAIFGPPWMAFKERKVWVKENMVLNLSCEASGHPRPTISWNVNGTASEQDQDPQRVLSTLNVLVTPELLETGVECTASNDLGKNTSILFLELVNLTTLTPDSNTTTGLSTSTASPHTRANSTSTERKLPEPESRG
From the text: as §1, §2

[4] = target: T4, human MCAM domain 1 hFc construct (human, UniProt P43121 19-129); assay: ForteBio Octet Red, MCAMhFc domains on anti-human IgG Fc sensors
T4 construct: One of the 'various MCAMhFc domains' loaded on the ForteBio sensors; also called MCAMhFc domain 1
T4 sequence: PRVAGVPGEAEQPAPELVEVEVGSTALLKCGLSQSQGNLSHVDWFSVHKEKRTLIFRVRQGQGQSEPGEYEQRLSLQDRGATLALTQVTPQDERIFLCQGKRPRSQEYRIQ
From the text: as §1, §2

[5] = target: T5, human MCAM domain 2 hFc construct (human, UniProt P43121 139-242); assay: as above
T5 construct: One of the 'various MCAMhFc domains' loaded on the ForteBio sensors; also called MCAMhFc domain 2
T5 sequence: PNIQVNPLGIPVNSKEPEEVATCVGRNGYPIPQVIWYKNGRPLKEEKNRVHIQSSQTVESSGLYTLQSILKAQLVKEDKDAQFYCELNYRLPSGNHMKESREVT
From the text: as §1, §2

[6] = target: T6, human MCAM domains 1 and 2 hFc construct (human, UniProt P43121 19-242); assay: as above
T6 construct: One of the 'various MCAMhFc domains' loaded on the ForteBio sensors
T6 sequence: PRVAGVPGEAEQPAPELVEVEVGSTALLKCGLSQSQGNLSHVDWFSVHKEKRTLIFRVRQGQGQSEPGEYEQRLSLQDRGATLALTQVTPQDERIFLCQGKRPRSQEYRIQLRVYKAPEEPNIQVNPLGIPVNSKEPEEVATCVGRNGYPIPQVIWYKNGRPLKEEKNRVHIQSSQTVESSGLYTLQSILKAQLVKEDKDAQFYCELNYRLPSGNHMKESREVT
From the text: as §1, §2

[7] = target: T1, human MCAM expressed on CHO cells (full …); assay: laminin/FACS assay: blocking of recombinant laminin 411 binding to hMCAM expressing CHO cells, relative to rodent 2120, Expt#1
Protocol: (§3) Following incubation for 30-45 minutes, the cells were washed and anti-laminin conjugated to AF650 (NovusBio) was added to detect the bound laminin. The cells were run on a flow cytometer to measure the laminin binding signal.

[8] = target: T1, human MCAM expressed on CHO cells (full …); assay: laminin/FACS assay: blocking of recombinant laminin 411 binding to hMCAM expressing CHO cells, relative to rodent 2120, Expt#2
Protocol: as §3

recombinant hMCAM-His [9] = target: T7, recombinant hMCAM-His (human, UniProt P43121 24-559); assay: ForteBio Octet Red, antibody on anti-human Fc sensors, hMCAMHis analyte, 1:1 fit; affinity relative to rodent 2120, first Forte column
T7 chain: T3 chain
Protocol: The affinities were measured using the ForteBio Octet Red. Anti-human Fc sensors were used to capture the humanized antibodies, and several concentrations of hMCAMHis analyte were used to determine the affinity using a 1:1 fitting model.

recombinant hMCAM-His [10] = target: T7, recombinant hMCAM-His; assay: competitive ELISA on coated hMCAM-His, competitor biotinylated rodent or chimeric 2120; IC50 relative to rodent 2120
Protocol: The apparent affinities of the humanized antibodies were compared to the parental rodent or chimeric antibody in a competitive ELISA according to the following protocol: ELISA plates were coated with recombinant hMCAM-His, and blocked with casein buffer to prevent non-specific binding. Biotinylated rodent or chimeric antibody was added at a subsaturating concentration, in the presence or absence of 3× increasing concentrations of unlabeled competitor (humanized antibody, rodent, or chimeric). After washing to remove unbound antibody, streptavidin HRP was added to allow detection of the biotinylated antibody. The ELISA was developed with TMB substrate and the OD450 was measured. The IC50 of the unlabeled competitor was determined using the GraphPad Prism5 software.

- IC50 [1]: 0.469 µg/mL
- binding result [2]: binds
- binding result [3]: binds
- binding result [4]: no binding (tested: 5 ug/ml)
- binding result [5]: no binding (tested: 5 ug/ml)
- binding result [6]: no binding (tested: 5 ug/ml)
B1: mouse anti-human MCAM monoclonal antibody clone 1174.1.3 (antibody, V domains shown)
VH: QIQLVQSGPELKKPGETVKISCKASGYTFTNYGMNWVKQAPGKGLKWMGWINTYTGEPTYADDFKGRFALSLETSASTAYLQINNLKNEDMATYFCARYRYNKYERAMDYWGQGTSVTVSS
VL: DIVLTQSPASLAVSLGQRATISCRASKSVSTSGYSYMYWYQQKPGQPPKLLIYLASNLESGVPARFSGSGSGTDFTLNIHPVEEEDAATYYCQHSRELPFTFGSGTKLEIK
notes: Mouse hybridoma antibody

- Fold over rodent (Blocking) [7]: 2 fold
- Fold over rodent (Blocking) [8]: 3.5 fold
- Fold over rodent (Forte) (recombinant hMCAM-His [9]): 8.8 fold
- Fold over rodent (ELISA) (recombinant hMCAM-His [10]): 3.1 fold
B2: humanized anti-MCAM antibody h2120_VH1 + h2120_VL1 (antibody, V domains shown)
VH: QVTLKESGPVLVKPTETLTLTCTVSGFSLTSNGVSWVRQPPGKALEWIAAISSGGTTYYNSAFKSRLTISRDTSKSQVVLTMTNMDPVDTATYYCARRYGYGWYFDFWGQGTLVTVSS
VL: DIQMTQSPSSLSASVGDRVTITCKASQNIYNSLAWYQQKPGKAPKVLIFNANSLQTGIPSRFSGSGSGTDFTLTISSLQPEDFATYYCQQFYSGYTFGQGTKLEIK
notes: Human IgG1 / human kappa; also called h2120VH1VL1; Standard VH + standard VL

- Fold over rodent (Blocking) [7]: 4.6 fold
- Fold over rodent (Blocking) [8]: 12.6 fold
- Fold over rodent (Forte) (recombinant hMCAM-His [9]): 10.8 fold
- Fold over rodent (ELISA) (recombinant hMCAM-His [10]): 3.1 fold
B3: humanized anti-MCAM antibody h2120_VH1 + h2120_VL2 (antibody, V domains shown)
VH: B2 VH
VL: B2 VL with I58V
notes: Human IgG1 / human kappa; also called h2120VH1VL2; Standard VH + aggressive VL

- Fold over rodent (Blocking) [7]: 3.8 fold
- Fold over rodent (Blocking) [8]: 5.6 fold
- Fold over rodent (Forte) (recombinant hMCAM-His [9]): 17.4 fold
- Fold over rodent (ELISA) (recombinant hMCAM-His [10]): 5 fold
B4: humanized anti-MCAM antibody h2120_VH4 + h2120_VL3 (antibody, V domains shown)
VH: B2 VH with N32Q
VL: B2 VL with T22N
notes: Human IgG1 / human kappa; also called h2120VH4VL3; N-Q deamidate VH + conservative VL

- IC50 [1]: 0.29 µg/mL
- binding result [4]: no binding (tested: 5 ug/ml)
B5: rat anti-human MCAM monoclonal antibody clone 2107.4.10 (antibody, V domains shown)
VH: QVQLKESGPGLVQSSQTLSLTCTVSGFSLTSNGVSWVRQPPGKGLEWIAAISSGGSTYYNSAFKSRLSISRNTSKSQVLLKMNSLQTEDTGMYFCARHRPFYFDYWGQGVMVTVSS
VL: DIQVTQSPSLLSASVGDRVTLNCKGSQNIYKSLAWFRLKRGEAPKLLIYDANSLQTGIPSRFSGSGSGTDFTLTITSLQPEDVATYFCQQYYSGYTFGAGTKLELK
notes: Rat hybridoma antibody

- IC50 [1]: 0.431 µg/mL
- binding result [2]: binds
- binding result [3]: binds
- binding result [4]: no binding (tested: 5 ug/ml)
- binding result [5]: no binding (tested: 5 ug/ml)
- binding result [6]: no binding (tested: 5 ug/ml)
B6: mouse anti-human MCAM monoclonal antibody clone 1414.1.2 (antibody, V domains shown)
VH: EIQLQQTGPELVKPGASVKISCKASGYSFTDYIMLWVKQSHGKSLEWIGNINPYSGSSGYNLKFKGKATLTVDKSSSTAYMQLNSLTSEDSAVYYCARGKDFAMDYWGQGTSVTVSS
VL: DIVMSQSPSSLAVSAGEKVTMSCKSSQSLLNSSTRKNFLAWYQQKPGQSPKLLIYWASTRESGVPDRFTGSGSGTDFTLTISSVQAEDLAVYYCKQSYNRYTFGGGTKLEIK
notes: Mouse hybridoma antibody

- IC50 [1]: 0.307 µg/mL
- binding result [2]: binds
- binding result [3]: binds
- binding result [4]: no binding (tested: 5 ug/ml)
- binding result [5]: no binding (tested: 5 ug/ml)
- binding result [6]: no binding (tested: 5 ug/ml)
B7: mouse anti-human MCAM monoclonal antibody clone 1415.1.1 (antibody, V domains shown)
VH: QVQLQQPGAELVQPGAPVKLSCKASGYIFTSYWMNWVKQRPGRGLEWIGRIDPSDSKIHYNQKFKDKATLTVDRSSSTAYIQLGSLTSEDSAVYYCAKEGGLRRGDYAMDYWGQGTSVTVSS
VL: DIVMTQSPATLSVTPGDRVSLSCRASQSISDYLHWYQQKSHESPRLLIKYASQSISGIPSRFSGSGSGSDFTLSINSVEPEDVGVYYCQNGHNFPRTFGGGTKLEIK
notes: Mouse hybridoma antibody
